# Data published in US20040043959A1, “Combination therapies for treating methylthioadenosine phosphorylase deficient cells” (priority 2002, published 2004).
# B1: Human MTAP (Homo sapiens) (protein)
# chain: MASGTTTTAVKIGIIGGTGLDDPEILEGRTEKYVDTPFGKPSDALILGKIKNVDCVLLARHGRQHTIMPSKVNYQANIWALKEEGCTHVIVTTACGSLREEIQPGDIVIIDQFIDRTTMRPQSFYDGSHSCARGVCHIPMAEPFCPKTREVLIETAKKLGLRCHSKGTMVTIEGPRFSSRAESFMFRTWGADVINMTTVPEVVLAKEAGICYASIAMATDYDCWKEHEEAVSVDRVLKTLKENANKAKSLLLTTIPQIGSTEWSETLHNLKNMAQFSVLLPRH
# notes: six-histidine tag (His6) (N); made in house; host or cells: E. coli BL21 DE3
# Columns and labels:
# Experiment in all cases: MTAP substrate assay, coupled spectrophotometric (adenine, xanthine oxidase)
# Type in all cases: biochemical, human
# Details in all cases: other: substrate of MTAP, 37° C.
# [1] = substrate: Nc1ncnc2c1ncn2[C@@H]1O[C@H](CNC2CCCC2)[C@@H](O)[C@H]1O
# Procedure: (§1) An enzymatic assay to determine the activity of MTAP against a given substrate was performed. Human MTAP containing an N-terminal six-histidine tag was expressed in E. coli BL21 DE3 cells. The protein was purified to homogeneity by Ni2+ affinity chromatography. Enzymatic activity was measured using a coupled spectrophotometric assay designed to monitor the reaction product adenine (Savarese, T. M., Crabtree, G. W., and Parks, R. E. Jr., (1980) Biochem. Pharmacol. 30, 189-199). Various concentrations of the indicated 5′-deoxymethylthio adenosine (MTA) or substrate were incubated in assay buffer (40 mM potassium phosphate buffer, 1 mM, and DTT 0.8 units/ml xanthine oxidase coupling enzyme) for 5 minutes at 37° C. The reaction was initiated by the addition of MTAP. The exact concentration of enzyme used varied for each substrate tested and ranged from 2 nM to 500 nM. Activity as a function of enzyme concentration was determined for each substrate tested to ensure that the appropriate enzyme concentration was used. Activity was detected by continuous monitoring of absorbance at 305 nm for 10 minutes (ΔE=15,500 M^−1).
# (§2) Library compounds (10 and 50 uM) were tested using the assay described above with 2 nM MTAP enzyme. The resultant initial velocities are reported as a percentage of the initial velocity observed when MTA is the substrate. MTA controls, 10 and 50 uM concentrations, were run on each plate alongside the library compounds.
# [2] = substrate: Nc1ncnc2c1ncn2[C@@H]1O[C@H](C(=O)NCCO)[C@@H](O)[C@H]1O
# Procedure: as §1, §2
# [3] = substrate: C[C@H]1O[C@@H](n2cnc3c(N)ncnc32)[C@H](O)[C@@H]1O
# Procedure: as §1, §2
# [4] = substrate: CCOC(=O)CC[C@H]1O[C@@H](n2cnc3c(N)ncnc32)[C@H](O)[C@@H]1O
# Procedure: as §1, §2
# [5] = substrate: CCN(C)C(=O)[C@H]1O[C@@H](n2cnc3c(N)ncnc32)[C@H](O)[C@@H]1O
# Procedure: as §1, §2
# [6] = substrate: Nc1ncnc2c1ncn2[C@@H]1O[C@H](CNc2ccccc2)[C@@H](O)[C@H]1O
# Procedure: as §1, §2
# [7] = substrate: Nc1ncnc2c1ncn2[C@@H]1O[C@H](CSC2CCCCC2)[C@@H](O)[C@H]1O
# Procedure: as §1, §2
# [8] = substrate: Nc1ncnc2c1ncn2[C@@H]1O[C@H](CSCCCc2ccccc2)[C@@H](O)[C@H]1O
# Procedure: as §1, §2
# [9] = substrate: Nc1ncnc2c1ncn2[C@@H]1O[C@H](CSc2ccc(C(F)(F)F)cc2)[C@@H](O)[C@H]1O
# Procedure: as §1, §2
# [10] = substrate: Nc1ncnc2c1ncn2[C@@H]1O[C@H](CSCCO)[C@@H](O)[C@H]1O
# Procedure: as §1, §2
# [11] = substrate: Nc1ncnc2c1ncn2[C@@H]1O[C@H](CSCCc2ccccn2)[C@@H](O)[C@H]1O
# Procedure: as §1, §2
# [12] = substrate: Nc1ncnc2c1ncn2[C@@H]1O[C@H](CSCc2ccco2)[C@@H](O)[C@H]1O
# Procedure: as §1, §2
# [13] = substrate: CC(C)CSC[C@@H]1O[C@H](n2cnc3c(N)ncnc32)[C@H](O)[C@@H]1O
# Procedure: as §1, §2
# [14] = substrate: COc1ccc(CSC[C@H]2O[C@@H](n3cnc4c(N)ncnc43)[C@H](O)[C@@H]2O)cc1
# Procedure: as §1, §2
# [15] = substrate: Nc1ncnc2c1ncn2[C@@H]1O[C@H](CSc2ccccn2)[C@@H](O)[C@H]1O
# Procedure: as §1, §2
# [16] = substrate: CC(C)CCSC[C@H]1O[C@@H](n2cnc3c(N)ncnc32)[C@H](O)[C@@H]1O
# Procedure: as §1, §2
protein,measurement,setting,value
B1,Km,[1],600 µM
same,kcat,[1],0.3 s⁻¹
same,Km,[2],1000 µM
same,kcat,[2],3 s⁻¹
same,Km,[3],6 µM
same,kcat,[3],4.8 s⁻¹
same,Km,[4],5.95 µM
same,kcat,[4],4.12 s⁻¹
same,Km,[5],300 µM
same,kcat,[5],0.8 s⁻¹
same,Km,[6],8.5 µM
same,kcat,[6],2.02 s⁻¹
same,Km,[7],3.5 µM
same,kcat,[7],1.57 s⁻¹
same,Km,[8],2.8 µM
same,kcat,[8],2.16 s⁻¹
same,Km,[9],1.7 µM
same,kcat,[9],0.29 s⁻¹
same,Km,[10],25 µM
same,kcat,[10],1.46 s⁻¹
same,Km,[11],10.2 µM
same,kcat,[11],1.01 s⁻¹
same,Km,[12],4.45 µM
same,kcat,[12],6.15 s⁻¹
same,Km,[13],3.1 µM
same,kcat,[13],2.3 s⁻¹
same,Km,[14],3.7 µM
same,kcat,[14],3.8 s⁻¹
same,Km,[15],5.2 µM
same,kcat,[15],3.44 s⁻¹
same,Km,[16],2.8 µM
same,kcat,[16],5.5 s⁻¹
